Data published in patent publication US20110053865A1 (Ablynx, published 2011).
Values joined by “and” are separate entries in the source; they are usually repeats but may differ in a detail not shown here. Identical values can stand only once. Like-named read-outs stand apart in the source and are kept apart here. Blank lines part the entries; values can stand above or below the binder they belong to.

Tests used:
[1] = biological target: T1, recombinant human IL-23 (p19/p40) (human, UniProt Q9NPF7 20-189; P29460 23-328); experiment: SPR Biacore, hIL-23
T1 construct: Bought heterodimer (R&D Systems or eBioscience); biotinylated in the alpha-screens; also called hIL-23
T1 sequence (looked up) 1: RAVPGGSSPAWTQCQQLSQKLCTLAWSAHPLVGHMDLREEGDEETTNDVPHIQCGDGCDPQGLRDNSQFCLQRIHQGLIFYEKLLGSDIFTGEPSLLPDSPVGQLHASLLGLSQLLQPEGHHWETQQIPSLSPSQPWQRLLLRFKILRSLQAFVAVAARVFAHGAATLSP
T1 sequence (looked up) 2: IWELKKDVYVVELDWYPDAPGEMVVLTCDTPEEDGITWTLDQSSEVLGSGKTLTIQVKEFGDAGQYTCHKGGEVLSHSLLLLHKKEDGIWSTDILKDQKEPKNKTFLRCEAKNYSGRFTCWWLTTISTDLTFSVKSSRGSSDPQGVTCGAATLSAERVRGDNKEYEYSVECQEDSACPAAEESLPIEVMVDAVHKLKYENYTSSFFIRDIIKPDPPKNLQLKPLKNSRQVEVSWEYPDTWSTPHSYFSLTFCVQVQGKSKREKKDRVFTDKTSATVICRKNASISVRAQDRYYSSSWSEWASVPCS

[2] = biological target: T1, recombinant human IL-23 (p19/p40); experiment: SPR Biacore, hIL-23; remark: listed apart in the source
[3] = biological target: T1, recombinant human IL-23 (p19/p40); experiment: cell-based or functional assay
[4] = biological target: T1, recombinant human IL-23 (p19/p40); experiment: cell-based or functional assay; remark: listed apart in the source
[5] = biological target: T1, recombinant human IL-23 (p19/p40); experiment: cell-based or functional assay; remark: listed apart in the source
[6] = biological target: T1, recombinant human IL-23 (p19/p40); experiment: comp alpha-screen hIL-23
[7] = biological target: T1, recombinant human IL-23 (p19/p40); experiment: 'potency assay', not specified (probably the inhibition ELISA of Example 34)
[8] = biological target: T1, recombinant human IL-23 (p19/p40); experiment: cell-based or functional assay; remark: listed apart in the source
[9] = biological target: T1, recombinant human IL-23 (p19/p40); experiment: cell-based or functional assay; remark: listed apart in the source
[10] = biological target: cynomolgus IL-23 (cynomolgus); experiment: cell-based or functional assay
[11] = biological target: T1, recombinant human IL-23 (p19/p40); experiment: cell-based or functional assay; remark: listed apart in the source
[12] = biological target: T1, recombinant human IL-23 (p19/p40); experiment: cell-based or functional assay; remark: listed apart in the source
[13] = biological target: cynomolgus IL-23 (cynomolgus); experiment: cell-based or functional assay; remark: listed apart in the source
[14] = biological target: T1, recombinant human IL-23 (p19/p40); experiment: alpha-screen, hIL-23/IL-23R
[15] = biological target: T2, cynomolgus IL-23 (cynomolgus); experiment: alpha-screen, cIL-23/IL-23R
T2 construct: also called cyno IL-23; cIL-23

[16] = biological target: T1, recombinant human IL-23 (p19/p40); experiment: cell-based or functional assay; remark: listed apart in the source
[17] = biological target: T2, cynomolgus IL-23; experiment: cell-based or functional assay; remark: listed apart in the source
[18] = biological target: T1, recombinant human IL-23 (p19/p40); experiment: SPR Biacore 3000, hIL-23 on chip
Description: Binding kinetics of the second round variants are in depth analysed by Surface Plasmon Resonance (Biacore 3000). […] Nanobody binding was assessed at one concentration (100 nM). Each Nanobody was injected for 4 minutes at a flow rate of 45 μl/min to allow binding to chip-bound antigen. Next, binding buffer without Nanobody was sent over the chip at the same flow rate to allow spontaneous dissociation of bound Nanobody.

[19] = biological target: T1, recombinant human IL-23 (p19/p40); experiment: SPR Biacore, hIL-23; remark: listed apart in the source
[20] = biological target: T1, recombinant human IL-23 (p19/p40); experiment: SPR Biacore, hIL-23; remark: listed apart in the source
[21] = biological target: T1, recombinant human IL-23 (p19/p40); experiment: SPR Biacore, eBiosc hIL-23
[22] = biological target: T2, cynomolgus IL-23; experiment: SPR Biacore, cyno IL-23 on chip
[23] = biological target: T1, recombinant human IL-23 (p19/p40); experiment: SPR Biacore, hIL-23 on chip
Description: Nanobody binding was assessed at one concentration (100 nM). Each Nanobody was injected for 4 minutes at a flow rate of 45 μl/min to allow binding to chip-bound antigen. Next, binding buffer without Nanobody was sent over the chip at the same flow rate to allow spontaneous dissociation of bound Nanobody.

B1: P23IL81A12 (VHH)
VHH: EVQLVESGGGLVQAGGSLRLSCAASGRTLSSYAMGWFRQAPGKEREFVARISQGGTAIYYADSVKGRFTISRDNAKNTVYLQMNSLKPEDTAVYYCAKDPSPYYRGSAYLLSGSYDSWGQGTQVTVSS
notes: p19- Nanobody
koff [1]: 0.00022 s⁻¹ | Kd [2]: 0.38 nM | koff [2]: 0.00021 s⁻¹ | kon [2]: 560000 M⁻¹ s⁻¹

B2: P23IL81A12-BASIC (VHH)
VHH: EVQLVESGGGLVQPGGSLRLSCAASGRTLSSYAMGWFRQAPGKEREFVARISQGGTAIYYADSVKGRFTISRDNAKNTLYLQMNSLRPEDTAVYYCAKDPSPYYRGSAYLLSGSYDSWGQGTLVTVSS
koff [1]: 0.00024 s⁻¹

B5: P23IL37D5v16 (VHH)
VHH: EVQLLESGGGLVQPGGSLRLSCAASGFTLDYLAIGWFRQAPGKGREGVSCVSSSGQYTYYADSVKGRFTISRDNSKNTVYLQMNSLRPEDTAVYYCATDPECYRVRGYYNGEYDYWGQGTLVTVSS
notes: Humanization variant of 37D5
IC50 [6]: 0.044 nM | IC50 [7]: 0.0888 nM

B7: P23IL119A3-35GS-81G2-GGGC-PEG40 linear (bispecific antibody)
chain: EVQLVESGGGLVQAGGSLRLSCAASGRIFSLPASGNIFNLLTIAWHRQAPGMQRELVATINSGSRTNYADSVKGRFTISRDNAQKTVYLQMNNLKPEDTAVYYCQTSGSGSPNFWGQGTQVTVSSGGGGSGGGGSGGGGSGGGGSGGGGSGGGGSGGGGSEVQLVESGGGLVQPGGSLRLSCIASGLPFSTKSMGWFRQAPGKEREFVARISPGGTSRYYGDFVKGRFAISRDNAKNTTWLQMNSLKAEDTAVYYCASGERSTYIGSNYYRTNEYDYWGTGTQVTVSSGGGC
modifications: linear mPEG40 (maleimide) on the C-terminal Cys of GGGC
IC50, BAF3 proliferation assay, 76 pM hIL-23 [9]: 58.5 pM | IC50, splenocyte assay, 19 pM hIL-23 [3]: 7.1 pM | IC50, splenocyte assay, 3.8 pM cIL-23 [10]: 4.7 pM | IC50, BA/F3 proliferation assay, 76 pM hIL-23 [11]: 71 pM | IC50, splenocyte assay, 19 pM hIL-23 [12]: 7.1 pM | IC50, splenocyte assay, 3.8 pM cIL-23 [13]: 4.7 pM

B8: P23IL119A3-35GS-81G2-GGGC-PEG40 branched (bispecific antibody)
chain: EVQLVESGGGLVQAGGSLRLSCAASGRIFSLPASGNIFNLLTIAWHRQAPGMQRELVATINSGSRTNYADSVKGRFTISRDNAQKTVYLQMNNLKPEDTAVYYCQTSGSGSPNFWGQGTQVTVSSGGGGSGGGGSGGGGSGGGGSGGGGSGGGGSGGGGSEVQLVESGGGLVQPGGSLRLSCIASGLPFSTKSMGWFRQAPGKEREFVARISPGGTSRYYGDFVKGRFAISRDNAKNTTWLQMNSLKAEDTAVYYCASGERSTYIGSNYYRTNEYDYWGTGTQVTVSSGGGC
modifications: branched mPEG40 (maleimide) on the C-terminal Cys of GGGC
IC50, BAF3 proliferation assay, 76 pM hIL-23 [9]: 61.2 pM | IC50, splenocyte assay, 19 pM hIL-23 [3]: 5.6 pM | IC50, splenocyte assay, 3.8 pM cIL-23 [10]: 5.3 pM

B9: P23IL119A3v16 (VHH)
VHH: EVQLLESGGGLVQPGGSLRLSCAASGRIFSLPASGNIFNLLTIAWYRQAPGKGRELVATINSGSRTYYADSVKGRFTISRDNSKKTLYLQMNSLRPEDTAVYYCQTSGSGSPNFWGQGTLVTVSS
notes: Final humanization variant of 119A3
IC50 [14]: 1.24 nM | IC50 [15]: 0.7 nM | IC50, splenocyte assay hIL-23 [16]: 45.1 nM | IC50, splenocyte assay cIL-23 [17]: 82.6 nM | koff [18]: 0.0055 s⁻¹ and 0.0019 s⁻¹

B10: P23IL81G2-BASIC (VHH, name in Kabat numbering)
VHH: EVQLVESGGGLVQPGGSLRLSCIASGLPFSTKSMGWFRQAPGKGREFVARISPGGTSRYYGDFVKGRFAISRDNAKNTTWLQMNSLKAEDTAVYYCASGERSTYIGSNYYRTNEYDYWGTGTLVTVSS
notes: The sentence giving the two substitutions prints 'P23IL81A12basic' within the 81G2 paragraph
koff [19]: 0.00032 s⁻¹

B11: P23IL81G2 (VHH)
VHH: EVQLVESGGGLVQPGGSLRLSCIASGLPFSTKSMGWFRQAPGKEREFVARISPGGTSRYYGDFVKGRFAISRDNAKNTTWLQMNSLKAEDTAVYYCASGERSTYIGSNYYRTNEYDYWGTGTQVTVSS
notes: p19- Nanobody
koff [20]: 0.00039 s⁻¹ | kon [20]: 520000 M⁻¹ s⁻¹ | Kd [21]: 0.75 nM | koff [19]: 0.00034 s⁻¹

B12: P23IL81G2v11 (VHH)
VHH: EVQLLESGGGLVQPGGSLRLSCAASGLPFSTKSMGWFRQAPGKGREFVSRISPGGTSRYYGDFVKGRFTISRDNSKNTLYLQMNSLRAEDTAVYYCASGERSTYIGSNYYRTNEYDYWGQGTLVTVSS
notes: Final humanization variant of 81G2
koff [20]: 0.00031 s⁻¹ | kon [20]: 610000 M⁻¹ s⁻¹ | Kd [21]: 0.51 nM

Next, values leading:

IC50, splenocyte assay, 19 pM hIL-23 [3]: 26 pM | IC50, splenocyte assay (mIL-17) [4]: 0.03 to 0.06 nM | IC50, splenocyte assay, 37 pM hIL-23 [5]: 42 pM
B3: P23IL-121A2-35GS-119G7 (bispecific antibody)
chain: EVQLVESGGGLVQAGGSLRLSCAASGSIFNFNYMGWFRQAPGKEREFVAAIRWSGSSTYYADSVKGRFTISRDDAKNTVALQMNSLKPEDTAIYYCALRKGIPYSTSDRVIKGVNDYDYWGQGTQVTVSSGGGGSGGGGSGGGGSGGGGSGGGGSGGGGSGGGGSEVQLVESGGGLVQAGGSLTLSCAVSGLTFNNYAMGWFRQVPGKEREFVAAISRSGLRTFYSDSVKGRFTISRDSAKSTVYVQMNNLKPEDTAVYFCAADRRTYYSEGPSLTDTLRYDYWGQGTQVTVSS

IC50, splenocyte assay (mIL-17) [4]: ~1.5 nM
B4: P23IL-121A2 (VHH)
VHH: EVQLVESGGGLVQAGGSLRLSCAASGSIFNFNYMGWFRQAPGKEREFVAAIRWSGSSTYYADSVKGRFTISRDDAKNTVALQMNSLKPEDTAIYYCALRKGIPYSTSDRVIKGVNDYDYWGQGTQVTVSS

IC50, splenocyte assay, 19 pM hIL-23 [8]: 94 pM | IC50, splenocyte assay, 19 pM hIL-23 [3]: 154 pM | IC50, splenocyte assay (mIL-17) [4]: ~0.09 nM
B6: P23IL-121A2-35GS-81G2 (bispecific antibody)
chain: EVQLVESGGGLVQAGGSLRLSCAASGSIFNFNYMGWFRQAPGKEREFVAAIRWSGSSTYYADSVKGRFTISRDDAKNTVALQMNSLKPEDTAIYYCALRKGIPYSTSDRVIKGVNDYDYWGQGTQVTVSSGGGGSGGGGSGGGGSGGGGSGGGGSGGGGSGGGGSEVQLVESGGGLVQPGGSLRLSCIASGLPFSTKSMGWFRQAPGKEREFVARISPGGTSRYYGDFVKGRFAISRDNAKNTTWLQMNSLKAEDTAVYYCASGERSTYIGSNYYRTNEYDYWGTGTQVTVSS

IC50, splenocyte assay, 37 pM hIL-23 [5]: 4760 pM
B13: P23IL-121A2-9GS-119G7 (bispecific antibody)
chain: EVQLVESGGGLVQAGGSLRLSCAASGSIFNFNYMGWFRQAPGKEREFVAAIRWSGSSTYYADSVKGRFTISRDDAKNTVALQMNSLKPEDTAIYYCALRKGIPYSTSDRVIKGVNDYDYWGQGTQVTVSSGGGGSGGGSEVQLVESGGGLVQAGGSLTLSCAVSGLTFNNYAMGWFRQVPGKEREFVAAISRSGLRTFYSDSVKGRFTISRDSAKSTVYVQMNNLKPEDTAVYFCAADRRTYYSEGPSLTDTLRYDYWGQGTQVTVSS

koff [22]: 0.0024 s⁻¹ | koff [23]: 0.0002 s⁻¹
B14: P23IL 84G1 (VHH)
VHH: EVQLVESGGGMVQAGGSLRLSCTASGLTDNSYAMGWFRRAPGKEREFLTGLTLSGGSTYYADSVKGRFTTSRDSQKNTVSLQMNSLKPEDTAVYYCAANRFGYGSAAYTPDNYNYWAQGTQVTVSS
notes: p40- Nanobody

koff [22]: 0.0001 s⁻¹ | koff [23]: 0.001 s⁻¹
B15: P23IL 22D10 (VHH)
VHH: EVQLVESGGGLVQAGASLRLSCAASGRTFRSYNMGWLRQAPGKEREFVATISWNAGIPYYADSVKGRFTISRDNAKNTVYLQMNSLKPEDTAVYYCAASNSWSSSARFYDYWGQGTQVTVSS
notes: p40- Nanobody
